The test deals with plasma purified human complement protein C3 (human) (UniProt P01024). Briefly: cell-based or functional assay.
Chain of plasma purified human complement protein C3 (human) (P01024 23-667, chain 1 of 2): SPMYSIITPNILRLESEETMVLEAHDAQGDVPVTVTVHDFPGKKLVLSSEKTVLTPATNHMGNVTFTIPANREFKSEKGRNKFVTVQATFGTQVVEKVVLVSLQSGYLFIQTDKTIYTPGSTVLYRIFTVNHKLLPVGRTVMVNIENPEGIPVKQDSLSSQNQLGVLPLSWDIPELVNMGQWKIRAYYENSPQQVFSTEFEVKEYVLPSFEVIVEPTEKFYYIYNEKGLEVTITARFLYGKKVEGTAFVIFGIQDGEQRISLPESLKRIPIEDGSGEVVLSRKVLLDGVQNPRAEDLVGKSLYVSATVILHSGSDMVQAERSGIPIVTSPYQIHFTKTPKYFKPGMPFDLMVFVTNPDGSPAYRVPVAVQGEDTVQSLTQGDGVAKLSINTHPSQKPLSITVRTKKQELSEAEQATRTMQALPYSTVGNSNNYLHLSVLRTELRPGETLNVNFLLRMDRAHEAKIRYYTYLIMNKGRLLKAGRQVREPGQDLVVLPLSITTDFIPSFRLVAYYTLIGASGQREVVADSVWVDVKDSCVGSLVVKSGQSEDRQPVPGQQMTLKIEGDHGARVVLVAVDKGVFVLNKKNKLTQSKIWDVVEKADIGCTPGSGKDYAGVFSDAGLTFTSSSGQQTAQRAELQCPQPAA
Chain of plasma purified human complement protein C3 (human) (P01024 672-1663, chain 2 of 2): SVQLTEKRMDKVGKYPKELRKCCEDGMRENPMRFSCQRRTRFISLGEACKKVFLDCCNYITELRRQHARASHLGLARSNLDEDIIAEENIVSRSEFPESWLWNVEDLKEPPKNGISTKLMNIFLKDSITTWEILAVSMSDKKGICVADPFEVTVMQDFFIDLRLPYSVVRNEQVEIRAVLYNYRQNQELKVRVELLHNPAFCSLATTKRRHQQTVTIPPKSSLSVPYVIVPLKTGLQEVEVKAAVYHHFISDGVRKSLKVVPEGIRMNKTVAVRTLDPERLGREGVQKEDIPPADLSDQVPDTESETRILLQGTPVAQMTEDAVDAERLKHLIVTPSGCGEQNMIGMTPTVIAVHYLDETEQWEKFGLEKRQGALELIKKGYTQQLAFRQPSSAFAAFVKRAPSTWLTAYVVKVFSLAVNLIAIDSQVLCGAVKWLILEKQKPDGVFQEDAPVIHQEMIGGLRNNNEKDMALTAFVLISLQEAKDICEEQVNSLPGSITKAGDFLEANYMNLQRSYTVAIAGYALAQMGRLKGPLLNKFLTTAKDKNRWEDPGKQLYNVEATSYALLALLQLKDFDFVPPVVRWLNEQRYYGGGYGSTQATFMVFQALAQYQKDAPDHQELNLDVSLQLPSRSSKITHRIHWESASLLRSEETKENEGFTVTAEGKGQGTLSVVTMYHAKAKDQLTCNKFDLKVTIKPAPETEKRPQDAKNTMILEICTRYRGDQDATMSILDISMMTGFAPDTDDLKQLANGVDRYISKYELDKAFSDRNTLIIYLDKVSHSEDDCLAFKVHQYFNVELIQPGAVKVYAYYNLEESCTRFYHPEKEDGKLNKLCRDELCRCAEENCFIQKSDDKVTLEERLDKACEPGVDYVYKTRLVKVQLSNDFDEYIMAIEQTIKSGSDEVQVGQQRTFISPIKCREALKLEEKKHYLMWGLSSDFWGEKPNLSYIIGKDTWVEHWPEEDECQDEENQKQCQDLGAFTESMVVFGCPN

B1: MTSP-1 H40R/I41H/F97E/C122S (enzyme)
chain: VVGGTDADEGEWPWQVSLHALGQGRHCGASLISPNWLVSAAHCYIDDRGFRYSDPTQWTAFLGLHDQSQRSAPGVQERRLKRIISHPFFNDETFDYDIALLELEKPAEYSSMVRPISLPDASHVFPAGKAIWVTGWGHTQYGGTGALILQKGEIRVINQTTCENLLPQQITPRMMCVGFLSGGVDSCQGDSGGPLSSVEADGRIFQAGVVSWGDGCAQRNKPGVYTRLPLFRDWIKENTGV
The molecule B1 displayed an EC50 of hC3 cleavage of 51.7 nM.

B2: MTSP-1 H40R/I41H/Y60gF/F97D/F99L/C122S/Q192G/D217R/K224A (enzyme)
chain: VVGGTDADEGEWPWQVSLHALGQGRHCGASLISPNWLVSAAHCYIDDRGFRFSDPTQWTAFLGLHDQSQRSAPGVQERRLKRIISHPFFNDDTLDYDIALLELEKPAEYSSMVRPISLPDASHVFPAGKAIWVTGWGHTQYGGTGALILQKGEIRVINQTTCENLLPQQITPRMMCVGFLSGGVDSCGGDSGGPLSSVEADGRIFQAGVVSWGRGCAQRNAPGVYTRLPLFRDWIKENTGV
Turning to B2, the EC50 of hC3 cleavage stood at 25.9 nM.

B3: MTSP-1 H40R/I41H/F97D/F99L/C122S/Q175M/Q192G/D217V/K224Y (enzyme)
chain: VVGGTDADEGEWPWQVSLHALGQGRHCGASLISPNWLVSAAHCYIDDRGFRYSDPTQWTAFLGLHDQSQRSAPGVQERRLKRIISHPFFNDDTLDYDIALLELEKPAEYSSMVRPISLPDASHVFPAGKAIWVTGWGHTQYGGTGALILQKGEIRVINQTTCENLLPQMITPRMMCVGFLSGGVDSCGGDSGGPLSSVEADGRIFQAGVVSWGVGCAQRNYPGVYTRLPLFRDWIKENTGV
Consider B3, for which the EC50 of hC3 cleavage worked out at 2.76 nM.

B4: MTSP-1 H40R/I41H/F97D/F99L/C122S/Q175L/Q192G/D217K/K224A (enzyme)
chain: VVGGTDADEGEWPWQVSLHALGQGRHCGASLISPNWLVSAAHCYIDDRGFRYSDPTQWTAFLGLHDQSQRSAPGVQERRLKRIISHPFFNDDTLDYDIALLELEKPAEYSSMVRPISLPDASHVFPAGKAIWVTGWGHTQYGGTGALILQKGEIRVINQTTCENLLPQLITPRMMCVGFLSGGVDSCGGDSGGPLSSVEADGRIFQAGVVSWGKGCAQRNAPGVYTRLPLFRDWIKENTGV
As to B4, the EC50 of hC3 cleavage turned out to be 14.1 nM.

B5: MTSP-1 H40R/I41H/Y60gH/F97D/F99L/C122S/G151N/Q175A/Q192H/D217I/K224R (enzyme)
chain: VVGGTDADEGEWPWQVSLHALGQGRHCGASLISPNWLVSAAHCYIDDRGFRHSDPTQWTAFLGLHDQSQRSAPGVQERRLKRIISHPFFNDDTLDYDIALLELEKPAEYSSMVRPISLPDASHVFPAGKAIWVTGWGHTQYGGTNALILQKGEIRVINQTTCENLLPQAITPRMMCVGFLSGGVDSCHGDSGGPLSSVEADGRIFQAGVVSWGIGCAQRNRPGVYTRLPLFRDWIKENTGV
In turn, B5 displayed an EC50 of hC3 cleavage of 19.8 nM.

B6: MTSP-1 H40R/I41H/F97D/F99L/C122S/Q175M/Q192G/D217S (enzyme)
chain: VVGGTDADEGEWPWQVSLHALGQGRHCGASLISPNWLVSAAHCYIDDRGFRYSDPTQWTAFLGLHDQSQRSAPGVQERRLKRIISHPFFNDDTLDYDIALLELEKPAEYSSMVRPISLPDASHVFPAGKAIWVTGWGHTQYGGTGALILQKGEIRVINQTTCENLLPQMITPRMMCVGFLSGGVDSCGGDSGGPLSSVEADGRIFQAGVVSWGSGCAQRNKPGVYTRLPLFRDWIKENTGV
B6 came in with an EC50 of hC3 cleavage of 24.4 nM.

B7: MTSP-1 H40R/I41H/Y60gN/F97D/F99L/C122S/G151N/Q175K/Q192S/D217S/K224L (enzyme)
chain: VVGGTDADEGEWPWQVSLHALGQGRHCGASLISPNWLVSAAHCYIDDRGFRNSDPTQWTAFLGLHDQSQRSAPGVQERRLKRIISHPFFNDDTLDYDIALLELEKPAEYSSMVRPISLPDASHVFPAGKAIWVTGWGHTQYGGTNALILQKGEIRVINQTTCENLLPQKITPRMMCVGFLSGGVDSCSGDSGGPLSSVEADGRIFQAGVVSWGSGCAQRNLPGVYTRLPLFRDWIKENTGV
With B7, the EC50 of hC3 cleavage was determined as 187 nM.

B8: MTSP-1 H40K/I41L/Y60gF/F97D/F99L/C122S/G151N/Q175R (enzyme)
chain: VVGGTDADEGEWPWQVSLHALGQGKLCGASLISPNWLVSAAHCYIDDRGFRFSDPTQWTAFLGLHDQSQRSAPGVQERRLKRIISHPFFNDDTLDYDIALLELEKPAEYSSMVRPISLPDASHVFPAGKAIWVTGWGHTQYGGTNALILQKGEIRVINQTTCENLLPQRITPRMMCVGFLSGGVDSCQGDSGGPLSSVEADGRIFQAGVVSWGDGCAQRNKPGVYTRLPLFRDWIKENTGV
B8 had an EC50 of hC3 cleavage of 237 nM.

B9: MTSP-1 H40R/I41H/Y60gF/F97D/F99L/C122S/Q192G/D217M/K224R (enzyme)
chain: VVGGTDADEGEWPWQVSLHALGQGRHCGASLISPNWLVSAAHCYIDDRGFRFSDPTQWTAFLGLHDQSQRSAPGVQERRLKRIISHPFFNDDTLDYDIALLELEKPAEYSSMVRPISLPDASHVFPAGKAIWVTGWGHTQYGGTGALILQKGEIRVINQTTCENLLPQQITPRMMCVGFLSGGVDSCGGDSGGPLSSVEADGRIFQAGVVSWGMGCAQRNRPGVYTRLPLFRDWIKENTGV
B9 returned an EC50 of hC3 cleavage of 38 nM.

B10: MTSP-1 H40R/I41H/F97D/F99L/Q192G (enzyme)
chain: VVGGTDADEGEWPWQVSLHALGQGRHCGASLISPNWLVSAAHCYIDDRGFRYSDPTQWTAFLGLHDQSQRSAPGVQERRLKRIISHPFFNDDTLDYDIALLELEKPAEYSSMVRPICLPDASHVFPAGKAIWVTGWGHTQYGGTGALILQKGEIRVINQTTCENLLPQQITPRMMCVGFLSGGVDSCGGDSGGPLSSVEADGRIFQAGVVSWGDGCAQRNKPGVYTRLPLFRDWIKENTGV
B10: the EC50 of hC3 cleavage was 24.1 nM.

B11: MTSP-1 H40R/I41H/F97D/F99L/C122S/Q175K/Q192G/D217I/K224H (enzyme)
chain: VVGGTDADEGEWPWQVSLHALGQGRHCGASLISPNWLVSAAHCYIDDRGFRYSDPTQWTAFLGLHDQSQRSAPGVQERRLKRIISHPFFNDDTLDYDIALLELEKPAEYSSMVRPISLPDASHVFPAGKAIWVTGWGHTQYGGTGALILQKGEIRVINQTTCENLLPQKITPRMMCVGFLSGGVDSCGGDSGGPLSSVEADGRIFQAGVVSWGIGCAQRNHPGVYTRLPLFRDWIKENTGV
B11 gave an EC50 of hC3 cleavage of 19.4 nM.

B12: MTSP-1 H40R/I41H/Y60gF/F97D/F99L/C122S/Q175M/Q192G/D217W/K224R (enzyme)
chain: VVGGTDADEGEWPWQVSLHALGQGRHCGASLISPNWLVSAAHCYIDDRGFRFSDPTQWTAFLGLHDQSQRSAPGVQERRLKRIISHPFFNDDTLDYDIALLELEKPAEYSSMVRPISLPDASHVFPAGKAIWVTGWGHTQYGGTGALILQKGEIRVINQTTCENLLPQMITPRMMCVGFLSGGVDSCGGDSGGPLSSVEADGRIFQAGVVSWGWGCAQRNRPGVYTRLPLFRDWIKENTGV
On to B12, for which the EC50 of hC3 cleavage is 9.92 nM.

B13: MTSP-1 H40R/I41H/Y60gH/F97D/F99L/C122S/Q175M/Q192G/D217I/K224L (enzyme)
chain: VVGGTDADEGEWPWQVSLHALGQGRHCGASLISPNWLVSAAHCYIDDRGFRHSDPTQWTAFLGLHDQSQRSAPGVQERRLKRIISHPFFNDDTLDYDIALLELEKPAEYSSMVRPISLPDASHVFPAGKAIWVTGWGHTQYGGTGALILQKGEIRVINQTTCENLLPQMITPRMMCVGFLSGGVDSCGGDSGGPLSSVEADGRIFQAGVVSWGIGCAQRNLPGVYTRLPLFRDWIKENTGV
The molecule B13 showed an EC50 of hC3 cleavage of 3.72 nM.

B14: MTSP-1 F97T/ins97aE/T98G/F99L/C122S/Q175L/Q192E (enzyme)
chain: VVGGTDADEGEWPWQVSLHALGQGHICGASLISPNWLVSAAHCYIDDRGFRYSDPTQWTAFLGLHDQSQRSAPGVQERRLKRIISHPFFNDTEGLDYDIALLELEKPAEYSSMVRPISLPDASHVFPAGKAIWVTGWGHTQYGGTGALILQKGEIRVINQTTCENLLPQLITPRMMCVGFLSGGVDSCEGDSGGPLSSVEADGRIFQAGVVSWGDGCAQRNKPGVYTRLPLFRDWIKENTGV
B14 had an EC50 of hC3 cleavage of 259 nM.

(Values after patent US20240018502A1.)
